# Measurements as given in patent US20230414780A1 (VECT HORUS, published 2023).
# Residue numbers refer to the chain shown, from its start.
# B1: B8^V2 (VHH)
# VHH: EVQLVESGGGVVQPGGSLRLSCAASGEIFSINFMRWYGQAPGKQREWVAGFTRDGSTNYPDSAKGRFTISRDNAKNTVYLQIDSLKPEDTAVYYCYMLDTWGQGTQVTVSS
# B2: B8^V7 (VHH)
# VHH: B1 VHH with G38R, S56Y
# B3: B8^V21 (VHH)
# VHH: B1 VHH with F33N, G38R
# B4: B8^V20 (VHH)
# VHH: B1 VHH with G38R, T57H
# B5: B8^V30 (VHH)
# VHH: B1 VHH with G38R, L98Q
# B6: B8^V18 (VHH)
# VHH: B1 VHH with F29H, G38R
# B7: B8^V28 (VHH)
# VHH: B1 VHH with G38R, N58F
# B8: B8^V15 (VHH)
# VHH: B1 VHH with G38R, G55D
# B9: B8^V17 (VHH)
# VHH: B1 VHH with G38R, W47F
# B10: B8^V14 (VHH)
# VHH: B1 VHH with G38R, D54L
# B11: B8^V11 (VHH)
# VHH: B1 VHH with G26D, G38R
# B12: B8^V19 (VHH)
# VHH: B1 VHH with G38R, E46H
# B13: B8^V9 (VHH)
# VHH: B1 VHH with G38R, T57K
# B14: B8^V4 (VHH)
# VHH: B1 VHH with G38R, G42I
# B15: B8^V25 (VHH)
# VHH: B1 VHH with G38R, G50A
# B16: B8^V5 (VHH)
# VHH: B1 VHH with G38R, Q44I
# B17: B8^V8 (VHH)
# VHH: B1 VHH with G38R, T57L
# B18: B8^V23 (VHH)
# VHH: B1 VHH with R35I, G38R
# B19: B8^V6 (VHH)
# VHH: B1 VHH with G38R, S56F
# B20: C5^V26 (VHH)
# VHH: EVQLVESGGGVVQPGGSLKLSCVASGTDFSINFIRWYRQAPGKQREFVAGFTATGNTNYADSMKGRFTISRDNTKNAVYLQIDSLKPEDTAVYYCYVLDKWGQGTQVTVSS
# B21: C5^h12 (VHH)
# VHH: B20 VHH with K19R, V23A, Q44G, R45L, M63V, T74A, A77T, V78L, K86R, V97M
# B22: C5^h11 (VHH)
# VHH: EVQLVESGGGVVQPGGSLRLSCAASGTDFSINFIRWVRQAPGKGLEWVAGFTATGNTNYADSMKGRFTISRDNTKNTLYLQMNSLRPEDTAVYYCYMLDKWGQGTQVTVSS
# B23: C5^h21 (VHH)
# VHH: B22 VHH with V37Y, W47F, M63V, T74A, R86K
# B24: VHH A14 (C5^V14) (VHH)
# VHH: B20 VHH with T57S, V97M
# B25: C5^V28 (VHH)
# VHH: B20 VHH with T27A, T52S, V97M
# B26: C5^h26 (VHH)
# VHH: B22 VHH with V37Y, M63V, T74A, M82I, N83D
# B27: C5^h23 (VHH)
# VHH: B22 VHH with G44Q, L45R, W47F, M63V, T74A
# B28: C5^h13 (VHH)
# VHH: B22 VHH with V37Y, W47F, M63V
# B29: VHH A10 (C5^V10) (VHH)
# VHH: B20 VHH with I31L, V97M
# B30: C5^h24 (VHH)
# VHH: B22 VHH with V37Y, W47F, T74A
# B31: A9a (VHH)
# VHH: QVQLVQSGGGLVQAGGSLRLSCAASGSIFLINDMGWYRQAPGKQRELVAVRGGSTKYGDSVKGRFTISRDDAKNTVYLQMNSLKPEDTAVYYCHRESGLGSSEYWGQGTQVTVSS
# B32: C5^h16 (VHH)
# VHH: B22 VHH with V11L, V37Y, W47F, M63V, T74S, P87A, Q106L
# Target: T1, rhesus monkey transferrin receptor (rhTfR) fused to EGFP, on CHO cells (rhesus monkey)
# T1 construct: whole, on cells; also called rhesus monkey TfR
# Experiment: apparent Kd, flow cytometry, CHO cells
# Protocol: (§1) The binding properties of VHHs with affinity for the TfR from different species (i.e., human (h), mouse (m) and rhesus monkey (rh)) were tested using flow cytometry, and apparent affinities (Kd app) were determined. All experiments were performed in 96 well plates using 2×10⁵ cells/well, at 4° C. with shaking. CHO cell lines expressing the hTfR, mTfR or rhTfR fused to EGFP were saturated with PBS/BSA 2% solution during 30 min to avoid nonspecific binding, followed by incubation with purified VHHs at increasing concentrations for 1 hr. After one wash in PBS/BSA 2%, cells were incubated for 1 hr with an anti-6His tag antibody (mouse), washed twice with PBS/BSA 2%, and incubated for 1 hr with an Alexa647-conjugated anti-mouse secondary antibody. After two last washes in PBS/BSA 2%, cells were fixed by incubation for 15 min with PBS/PFA 2%, washed once with PBS and finally resuspended in PBS. Fluorescence levels were assessed using an Attune NxT flow cytometer (Thermo Fisher Scientific). Experimental data were fitted with GraphPad Prism® software using a nonlinear fit to determine the apparent Kd constants. […] Table 5 hereafter summarizes apparent Kd obtained for the tested VHHs.
row,Kd [µM],Binder
1,0.0001,B1
2,0.0026,B2
3,0.469,B3
4,0.0018,B4
5,0.505,B5
6,0.0016,B6
7,0.755,B7
8,0.0043,B8
9,0.0025,B9
10,0.0019,B10
11,0.002,B11
12,0.0023,B12
13,0.0024,B13
14,0.0003,B14
15,0.425,B15
16,0.0021,B16

row,Kd [µM],Binder
1,0.0021,B17
2,0.939,B18
3,0.0027,B19
4,0.335,B20
5,0.361,B21
6,1.24,B22
7,1.01,B23
8,0.0039,B24
9,0.371,B25
10,0.656,B26
11,2,B27
12,0.73,B28
13,0.0051,B29
14,0.641,B30
15,0.965,B31
16,0.76,B32

# Target: T2, mouse transferrin receptor (mTfR) fused to EGFP, on CHO cells (mouse, UniProt Q62351 1-763)
# T2 construct: whole, on cells; also called mouse TfR; CHO-mTfR-EGFP; not shown: EGFP
# T2 sequence (Q62351 whole entry, the tested form may be a part): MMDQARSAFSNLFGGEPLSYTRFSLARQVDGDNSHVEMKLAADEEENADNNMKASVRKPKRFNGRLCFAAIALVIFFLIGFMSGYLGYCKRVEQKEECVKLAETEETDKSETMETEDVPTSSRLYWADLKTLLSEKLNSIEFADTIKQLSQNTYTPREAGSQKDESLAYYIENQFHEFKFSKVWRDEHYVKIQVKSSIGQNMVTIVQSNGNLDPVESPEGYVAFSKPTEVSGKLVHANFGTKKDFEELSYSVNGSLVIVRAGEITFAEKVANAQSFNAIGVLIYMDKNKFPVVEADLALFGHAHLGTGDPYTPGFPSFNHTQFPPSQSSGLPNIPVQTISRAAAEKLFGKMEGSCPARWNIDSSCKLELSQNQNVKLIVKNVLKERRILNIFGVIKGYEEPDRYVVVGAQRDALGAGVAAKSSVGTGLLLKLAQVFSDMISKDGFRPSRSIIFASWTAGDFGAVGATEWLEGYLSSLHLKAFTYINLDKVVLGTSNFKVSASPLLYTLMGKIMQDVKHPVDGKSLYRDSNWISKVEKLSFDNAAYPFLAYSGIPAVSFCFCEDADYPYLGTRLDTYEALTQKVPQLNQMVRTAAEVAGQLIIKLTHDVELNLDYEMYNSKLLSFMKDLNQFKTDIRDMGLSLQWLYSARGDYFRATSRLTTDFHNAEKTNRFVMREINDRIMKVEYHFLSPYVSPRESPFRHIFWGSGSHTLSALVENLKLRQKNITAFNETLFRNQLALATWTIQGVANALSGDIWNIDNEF
# Experiment: apparent Kd, flow cytometry, CHO cells
# Protocol: as §1
row,Kd [µM],Binder
1,0.0002,B1
2,0.041,B2
3,3.35,B3
4,0.0064,B4
5,3.32,B5
6,0.043,B6
7,2.5,B7
8,0.684,B8
9,0.0052,B9
10,0.041,B10
11,0.022,B11
12,0.0076,B12
13,0.031,B13
14,0.0006,B14
15,2.35,B15
16,0.0038,B16

row,Kd [µM],Binder
1,0.0081,B17
2,1.55,B18
3,0.016,B19
4,0.211,B20
5,0.331,B21
6,1.37,B22
7,0.6,B23
8,0.158,B24
9,0.16,B25
10,0.675,B26
11,1.54,B27
12,0.554,B28
13,0.159,B29
14,0.624,B30
15,0.841,B31
16,0.582,B32

# Target: T3, human transferrin receptor (hTfR) fused to EGFP, on CHO cells (human, UniProt P02786 1-760)
# T3 construct: whole, on cells; also called human TfR; CHO-hTfR-EGFP; not shown: EGFP from pEGFP-C1 vector, fused to the N-terminal (intracellular) end of hTfR
# T3 sequence (P02786 whole entry, the tested form may be a part): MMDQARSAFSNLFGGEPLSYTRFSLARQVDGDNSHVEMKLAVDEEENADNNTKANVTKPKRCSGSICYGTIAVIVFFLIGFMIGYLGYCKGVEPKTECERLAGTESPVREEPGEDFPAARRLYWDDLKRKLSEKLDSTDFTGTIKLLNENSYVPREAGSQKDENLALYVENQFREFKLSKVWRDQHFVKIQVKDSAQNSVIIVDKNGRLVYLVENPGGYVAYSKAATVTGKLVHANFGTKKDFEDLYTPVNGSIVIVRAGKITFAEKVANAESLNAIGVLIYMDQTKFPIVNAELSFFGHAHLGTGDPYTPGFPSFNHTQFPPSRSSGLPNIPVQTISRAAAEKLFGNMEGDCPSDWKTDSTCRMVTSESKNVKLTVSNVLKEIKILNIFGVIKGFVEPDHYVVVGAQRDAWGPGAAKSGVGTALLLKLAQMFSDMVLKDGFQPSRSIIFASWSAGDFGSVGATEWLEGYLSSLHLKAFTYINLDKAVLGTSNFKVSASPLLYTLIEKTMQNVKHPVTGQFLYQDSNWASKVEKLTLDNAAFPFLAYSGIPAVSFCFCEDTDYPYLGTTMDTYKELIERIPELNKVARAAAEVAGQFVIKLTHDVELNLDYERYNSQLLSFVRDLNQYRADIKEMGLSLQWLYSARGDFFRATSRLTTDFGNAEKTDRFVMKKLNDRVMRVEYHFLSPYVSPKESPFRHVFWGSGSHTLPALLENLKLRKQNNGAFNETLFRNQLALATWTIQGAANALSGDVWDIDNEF
# Experiment: apparent Kd, flow cytometry, CHO cells
# Protocol: as §1
row,Kd [µM],Binder
1,0.0001,B1
2,0.0057,B2
3,0.029,B3
4,0.0045,B4
5,0.024,B5
6,0.0038,B6
7,0.031,B7
8,0.0047,B8
9,0.0048,B9
10,0.0048,B10
11,0.0046,B11
12,0.0062,B12
13,0.0028,B13
14,0.0004,B14
15,0.014,B15
16,0.0023,B16

row,Kd [µM],Binder
1,0.0025,B17
2,0.029,B18
3,0.0038,B19
4,0.0079,B20
5,0.0043,B21
6,1.13,B22
7,0.0088,B23
8,0.0033,B24
9,0.0033,B25
10,0.004,B26
11,0.594,B27
12,0.0083,B28
13,0.0034,B29
14,0.0041,B30
15,1.86,B31
16,0.0081,B32
